Test results from PMC9372576.

Experiments:
[1] = target: GvpA fused to NGFP or CGFP (Halobacterium salinarum) (UniProt P08958); assay: split reporter (BiFC, NanoBiT); split-GFP of A/A with untagged GvpC, GvpN and GvpO co-produced under the P2 promoter (A/A + CNO)
[2] = target: GvpA fused to NGFP or CGFP (Halobacterium salinarum) (UniProt P08958); assay: split reporter (BiFC, NanoBiT); split-GFP (NGFP and CGFP of salt-stable mGFP2) in Hfx. volcanii transformants, 24 h 37 °C then 24 h 30 °C; relative fluorescence (rf) against the wild type; the highest of eight tag combinations is given

GvpA fused to NGFP or CGFP (Halobacterium salinarum), sequence (P08958 whole entry, the tested form may be a part): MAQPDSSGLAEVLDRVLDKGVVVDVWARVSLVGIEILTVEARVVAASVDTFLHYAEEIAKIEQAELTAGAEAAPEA

relative fluorescence (rf) [1]	relative fluorescence (rf) [2]	Substance
5.12 LAU/mm^2	< 2 LAU/mm^2	GvpA fused to NGFP or CGFP (from UniProt P08958 1-76) (natural protein)
	< 2 LAU/mm^2	GvpC fused to NGFP or CGFP (from UniProt P24574 1-382) (natural protein)
